Reference: a protein production outcome set (Wang et al. 2014)

Assay: label from the status in PepcDB records

Sequence: MNNSETPAPGPDSLLALAFPSDPQVSPDGKQVAFVLAQISEEDPAKPDKDFARPRYRSGLWLSEGGAARPLTHAETGRGDSAPRWSPDGQNLAFVRSAGEVKAALMLLPLKGGEARRVTHFKNGVSGPQWSPDGRFIAFTTTADTEDKRDERGEARVLTRPVYRANGADWLPERPAALWLYDVEADKLREWYAPEIGIGALSWWPDSRGVLIVQSEDEWQASQWRQDVYDLPLPTADAPAAPQKLLDWNSAAHGLAPHPDGQRFALIGRPAGKGNTEHAHLYLIENGQHRRLDTGHDHPVGDAVGGDCHVGAFPEGPRWLDGDTLLFSSTVRGSVGLFTAHIGGGVKAYDHDPQGVISAFTANEHGVALIRESATRFPEVELNGQRVTDLHARFPFPVREPQRVTFETELGEGEGWVLLPEGEQKVPALLNIHGGPHTDYGHGFTHEFQLMAARGYGVCYSNPRGSVGYGQAWVDAIYGRWGTVDADDLLNFFDRCLEAVPRLDAAKTAVMGGSYGGFMTNWITGHTTRFQAAITDRCISNLISFGGTSDIGLRFWDDELGLDFSRRADALKLWDLSPLQYVENVKTPTLIVHSVLDHRCPVEQAEQWYAALHKHQVPVRFVRFPEENHELSRSGRPDRRLTRLNEYFAWLERWL
- protein production: failed

Sequence: MQAGQVATNDLTISGIVNTVPASAVFAREANPVKVLNVKNTGDETLSNISIAVYASDVSSGTVPVDTTTIASLAGDATTTVTLIDPTIRDLEGGTVTYTAVVDPDNLIAETDETNNNKSSLEHHHHHH
- protein production: failed

Sequence: MAKRVFIGATGQNCGKTTMSVSLMHLARQKYDRVGFIKPIGPKIEGYNGLTVDMDAILMARTFGLEEDLPLMNPVSLHKNFTRDFLSGKLDCNVLKTKILEAFEILDKKYDFLIIEGAGHGGVGSVIGLSNACVAHTLNAPVIIVTDSGIGSSIDAVHLNLALYEKEDADVRMLLVNKLRADKRESILSFLGKGFPGRPLKISGGFNYSPILANPTLSHIGKLLNLPVHGDPDGQSRIIHHIHLGAASAQRVVDALQESTLIVITSSRDELIVTLSSLYHIPAFREKIVGLVIAGHIPASEISQQILDDSNIPYIRVHDSTANVFTTLMEDVAKITAEDQEKLNWIRANAENEIDFEAIDALLLEHHHHHH
- protein production: failed

Sequence: MLYRLEKCCTPEIRLLSTYDVCSIAIAAPMRATRSQGVWDFFWETILMAYTTAQLVTAYTNANLGKAPDAATTLTLDAYATQTQTGGLSDAAALTNTLKLVNSTTAVAIQTYQFFTGVAPSAAGLDFLVDSTTNTNDLNDAYYSKFAQENRFINFSINLATGAGAGATAFAAAYTGVSYAQTVATAYDKIIGNAVATAAGVDVAAAVAFLSRQANIDYLTAFVRANTPFTAAADIDLAVKAALIGTILNAATVSGIGGYATATAAMINDLSDGALSTDNAAGVNLFTAYPSSGVSGSTLSLTTGTDTLTGTANNDTFVAGEVAGAATLTVGDTLSGGAGTDVLNWVQAAAVTALPTGVTISGIETMNVTSGAAITLNTSSGVTGLTALNTNTSGAAQTVTAGAGQNLTATTAAQAANNVAVDGGANVTVASTGVTSGTTTVGANSAASGTVSVSVANSSTTTTGAIAVTGGTAVTVAQTAGNAVNTTLTQADVTVTGNSSTTAVTVTQTAAATAGATVAGRVNGAVTITDSAAASATTAGKIATVTLGSFGAATIDSSALTTVNLSGTGTSLGIGRGALTATPTANTLTLNVNGLTTTGAITDSEAAADDGFTTINIAGSTASSTIASLVAADATTLNISGDARVTITSHTAAALTGITVTNSVGATLGAELATGLVFTGGAGADSILLGATTKAIVMGAGDDTVTVSSATLGAGGSVNGGDGTDVLVANVNGSSFSADPAFGGFETLRVAGAAAQGSHNANGFTALQLGATAGATTFTNVAVNVGLTVLAAPTGTTTVTLANATGTSDVFNLTLSSSAALAAGTVALAGVETVNIAATDTNTTAHVDTLTLQATSAKSIVVTGNAGLNLTNTGNTAVTSFDASAVTGTGSAVTFVSANTTVGEVVTIRGGAGADSLTGSATANDTIIGGAGADTLVYTGGTDTFTGGTGADIFDINAIGTSTAFVTITDAAVGDKLDLVGISTNGAIADGAFGAAVTLGAAATLAQYLDAAAAGDGSGTSVAKWFQFGGDTYVVVDSSAGATFVSGADAVIKLTGLVTLTTSAFATEVLTLA
- protein production: failed

Sequence: MLVTGVARQLGGRFVRRIQRDPNVDRVIAVDAVRPEHHLGGADFIQADIRQPTIARVLAEHSVDTVVHMDVTGTALGTGSRATVKETNVIGTMQLLGACQKSPTVKRLVVKSSTNVYGSAPRDPAVFTETTPPKSLPSGGFAKDTVEVEGYVRGFARRRPDVAVCVLRFANILGPSADSPLASYFSLPVLPTVFGYDPRLQFAHEDDVIDVLRIASYEPRRGTLNSGTFNVAGDGVLLLSQCARRLGRPTVPLLLPAVTWVGSAVRTLGMTDFSPEQIRLLTHGRVVATNQMRETLGYVPKYTTAETFADFARSRGPGLLPPEALAGAVDRIAALPALGGGHPPTQSAN
- protein production: failed

Sequence: NAKAESVSSGEFNRLRLALLALEARHSKRLGVLILDEIDSNLSGEESEGVARVLQELSRSYQILAISHQPHMPSYAHRHFLVKKEAKGSTIERLDRE
- protein production: failed

Sequence: MAKTLNSICFTTLLLVLLFISAEIPTAEANCDTYLGEVTVYYPCRERDCEAQCYEHYPHSCKGECEHHDHVVHHDNEEEHCHCYGR
- protein production: failed

Sequence: MVGNKVKSFMLPIISYAVPTFVLVYPSFFVSWLSESMHLAYWEVFAIVALPFLGRIIGSFIYQVFKNSVISYCFPFLGFLVILQNFLGALIFVRFLVGVIFGLLTSYAVESAVKSGRNVLVGFTTAGWPIGWVISYVAYVLLKNWNVINISGILIMLLALFELNGKEFGERSKISVSFPRLTSILIYVSALTPAFILQVMPSFLEVIKLTWLILPSYLLSIPTYVLLPIISEKVGIRKVLVISSIIVILSCVITFLLLPMMVIVFTSIGLGILGITPKYLAIRGEDPKRMGLALNIGSVMGLILPVVYGLMPFSSEFLLSILMVLMILI
- protein production: failed

Sequence: MSTDSVRSSTTGGSASGARTFCSLADLSTKKCVPCNAKDLRAMTEQSAQDLLQKVAGWDLANDNDTLKLHRSWRVKSFTKGLDFFQRVADIAESEGHHPDLHLVGWNNVKIEIWTHAIGGLTENDFILAAKINELQVEDLLRKKKVAK
- protein production: failed

Sequence: VLAPNVYFNPDAPPRKKRPLNVCAPEVVFFPTEDGVNLRLTRYNGGGKGPVMLVHGLGVGSNIFSTDTISTNLLEYLYQHGYDVWLLDFRVSILLPASQQQWDGDQVARYDYPAAIRRIREATGAADVQCVVHCYGATTFFMSMLAGLEGVRSVVCSQIAADIVVPTATQVKTGLHLPTVLDKLGVSSLTAYTASDSNWFEKLYDTALKGYALAEAQGYCNNPVCHRITFMYASLYRHETLNETLHDNLHELFGVANMRTMEHLARMCREGRLVSFDGDDIYMPHFDRLQMPILFISGEQNECYLPESTERTFDKLAQRFGPERYSRLVVPGYGHIDCMFGKNAAADVYPAIVAHLDKT
- protein production: failed

Sequence: MKINKIDTRHGTANQSTFSHGNCLPYTGFPWGMNYFSPSTGAARGAWWFHPEDRTFEGYRITHQPSPWMGDFSHLTMTPVAGPLPETSLWHTVSSYRPEESTFNPTQLKITQLRYQITSQLIPSMYGGILSMNYQNLSLKDNGLMLHLPGSYELQQLDDYSLELSIINFAGCEDENFTFYLKFTADQPFVLSGNLSDEDSSVRLDFKAAKQVQIHFATSFISKEQAALNLEREQDNSAETYLENAESAWNNLFSRIEIEHHNQQEVSTFYHNLYRSFLFPQTFYEFDQEHQKIHYDTSSKTVKKGPLYTNNGFWDTFRTVYPLYSLIAVDEYGDMLEGFLNSYRATGFLPKWLSPDERGLMPGTLIDAVIADAASKNIRPDLMPEFLEAMKKGATSQSENSNYGRRGTKDYLKLGYVPLTHHESVNHTLDYAFSDYCISQVAKQTGDKEISDFYAHQAKDYQNIFDSETGFMRAKDADGNFRADFLDIRWGRDYAEGSAWQTSWSVLHDFAGLIKLHGSRENFENKLIELCNQRPNFNVEGYGFEIHEMSEMAAIEFGQVAISNQPSFHYPYLFSYIGKPWMATPLIKNLLTETFNDSPKGYPGDEDNGTMAAWYIFSSLGFYPVTAASNQYVLGIPLWDKARINLSSGQQLTILAEPNAPQQVFVNQITFTDKKVNDTFIKHEELIKGGTLKFDLGIVPNPLKYTNEQLPYSLTEN
- protein production: failed

Sequence: MQLSIEEVKKLDSNSYQIIDIRSEEEVAHGAIKGALNIQAEEIESDERVPHDKKLVIVCSRGKTSVDVAEYLTEKGFDAASLKGGYISWLLDAMKEDEVAERDIKADVEQSIRKKFKKSIWRKFTKAINTYELVKPGDKIAVCISGGKDSMLMAKLFQELKHHNKFDFDVKFLVMDPGYNEANRHVIEENCRNLGIPATIFESDIFDAVYDIEKSPCYLCARMRRGHLYAFAKELGCNKIALGHHYDDVIETILMGMLYGAQVQTMMPKLHSTNFEGMELIRPLYLVREDDIKAWRDYNGLHFIQCACKFTDTCTTCNNEENRSKRVEIKQLIANLKKVNPFVEANIFKSVENVNLATVVAYKKDGIKHSFLDHYDE
- protein production: failed

Sequence: MDNGDWGYMMTDPVTLNVGGHLYTTSLTTLTRYPDSMLGAMFGGDFPTARDPQGNYFIDRDGPLFRYVLNFLRTSELTLPLDFKEFDLLRKEADFYQIEPLIQCLNDPKPLYPMDTFEEVVELSSTRKLSKYSNPVAVIITQLTITTKVHSLLEGISNYFTKWNKHMMDTRDCQVSFTFGPCDYHQEVSLRVHLMEYITKQGFTIRNTRVHHMSERANENTVEHNWTFCRLARKTDD
- protein production: failed

Sequence: MNDFSCPAIAFPSFLNPVIVHLGPIALYWYGLGYVVGILFVWWYAQKLLKKQSLWYANHPPMDKEKIGDFVVWSAISIVVGGRLGQVLVWDPIYYFSHPTAIITIWNGGMSFHGGLIGITIAMIWFARKNNIKIRAMFDIIAIGAPIGIGIVRICNFINQELWGNVTTHPWAVCFPLDPYYLPRHPSQLYEALMEGFLLFVILFILTFAFKALKRPGTVSGIFIIGYAIARSISEIYRAPQEDPEWFSTLFHSTGFTYGMALSLPMLFLGFYLLFQAFKDESTKNGHTQTKN
- protein production: failed

Sequence: MSRDEVLTRMRRFGPLAVVAVLCAAAFASGLVEHISLEELRLRGTQLQAFAHENPLLCAAIYLAVYVGTVAISLPGALILSLTGGFLFGPIGGGLAAVTGATGGSTVTFLVFRTAFGEALPFKSSAFIARIAEGLKGDAFNYLLTLRLIPAFPLLAVNVAAGVMNVRVRTFLLASVLGMIPSSFVYAGIGAGLGHVFAKGGPVTVESLLSPRIYLPIIGMGVLAFLPPLWRHWRNGRDVASLDEK
- protein production: failed

Sequence: MDVLSLVGIILAFVAIVGGNFLEGGHAGALLNGPAALIVIGGTLAAALLQTPVNVLKRGLGMLGWVFFPPREDLSGGIDRIVSWSMTARKEGLLGLESIADAEPDPYARKGLQLLVDGAEPEVIRSILEVDLFTQESRDLQAAKVFESMGGYAPTIGIIGAVMGLIHVMGNLANPAQLGSGIAVAFVATIYGVGFANLLLLPIGNKLKTLVLRQSRYREMLLEGLLSIAEGENPRSIELKLQGFMD
- protein production: failed

Sequence: MEKIAILVDVQNVYYTCREQYGRHFDYNQFWSQVTQNRTVVKANAYAIASKDPQQRQFHHILRGIGFEVMLKPFIQRSDGSAKGDWDVGIALDGYELAQEVDTVVLVSGDGDFEPLVTRIAQRFQVKVEVYGVPKLTAQHLIDVASQFHPIEHRLL
- protein production: failed

Sequence: QAPLRIECTDISHIQGTDVVASLVVFEDGLPRKSDYRRYRVKEAAGDGHSNDVASIAEITRRRFLRHNQDKLAVPEAEEFDGSTFSDEKVEEMSTDARRFAYPPQIFIVDGGAPQVAAAQEVFDELGIVDVVLIGLAKRLEEIWLPGDPDPVILPRNSQALFLLQQIRDEAHRFAITYHRQQRSKRMRVSELDSIKG
- protein production: failed

Sequence: MVMIWYKALFSFNGRLNRQGFWIGFGINFIFLFIIANFGPKETAFSLTMVLPLLLASYSCVAVIIKRLHDRNRSARAILMMFIPLICYGVSLATQGTMAWLLGVMMPMFIGTMLLLEWGVFKSYPQANQYGEKGETFCFT
- protein production: failed

Sequence: MVEQRNRGRPAVPDAVVRESIVGAAQRLLSSGGAAAMTMEGVASEAGIAKKTLYRFASGRADLIGLLVESWIAPIFPGFEADPQDAAAALERIVYDIAQAVLSREAVSLFRMLASDADLRNRFLPAYNANGIERSRRELARWLDQQASAGRLPLPIPAERVADLLLSAVIAEPLRQITLGLREPLPAWDIAPRVADAVRLIAPGRER
- protein production: not failed
